Laboratory results taken from patent US20260049138A1 (Chugai, published 2026).

Target: T1, CD3ε homodimer protein (human, UniProt P07766 23-126, limits assumed)
T1 construct: also called CD3 (CD3ε)
Assay: SPR Biacore T200, CD3ε homodimer on chip;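 also: Light-chain single-residue variant antibodies injected over amine-coupled CD3ε homodimer on a CM4 chip at 25 °C, bound amount divided by that of the GLS3000-containing antibody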
Method: Each one-amino acid altered form constructed, expressed, and purified in the paragraph (6-2) was evaluated using Biacore T200 (GE Healthcare Japan Corp.). An appropriate amount of CD3ε homodimer protein was immobilized onto Sensor chip CM4 (GE Healthcare Japan Corp.) by the amine coupling method. Then, the antibody having an appropriate concentration was injected thereto as an analyte and allowed to interact with the CD3ε homodimer protein on the sensor chip. Then, the sensor chip was regenerated by the injection of 10 mmol/L glycine-HCl (pH 1.5). The assay was conducted at 25° C., and HBS-EP+ (GE Healthcare Japan Corp.) was used as a running buffer. […] Each parameter was calculated using Biacore T200 Evaluation Software (GE Healthcare Japan Corp.).
Specifically, when the amount of the GLS3000-containing antibody bound was defined as X and the amount of the L chain one-amino acid altered form bound was defined as Y, a value of Z (ratio of amounts bound)=Y/X was used.

T1 sequence (P07766 23-126 limits assumed): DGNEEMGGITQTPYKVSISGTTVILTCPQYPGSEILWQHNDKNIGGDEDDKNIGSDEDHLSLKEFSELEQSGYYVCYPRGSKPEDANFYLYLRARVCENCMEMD

Binder | ratio of amount bound vs unaltered GLS3000
GLS3000 Q93E one-arm antibody (antibody, human IgG1, kappa, L234A L235A, N297A, name in Kabat numbering) heavy: QVQLVESGGGVVQPGRSLRLSCAASGFTFSNAWMHWVRQAPGKGLEWVAQIKAKSNNYATYYAESVKGRFTISRDDSKNSLYLQMNSLKTEDTAVYYCRYVHYGAYYGVDAWGQGTTVTVSSASTKGPSVFPLAPSSKSTSGGTAALGCLVKDYFPEPVTVSWNSGALTSGVHTFPAVLQSSGLYSLSSVVTVPSSSLGTQTYICNVNHKPSNTKVDKKVEPKSCDKTHTCPPCPAPEAAGGPSVFLFPPKPKDTLMISRTPEVTCVVVDVSHEDPEVKFNWYVDGVEVHNAKTKPREEQYASTYRVVSVLTVLHQDWLNGKEYKCKVSNKALPAPIEKTISKAKGQPREPQVYTLPPSRCELTKNQVSLSCAVKGFYPSDIAVEWESNGQPENNYKTTPPVLDSDGSFFLVSKLTVDKSRWQQGNVFSCSVMHEALHNHYTQKSLSLSPDYKDDDDK EPKSSDKTHTCPPCPAPELLGGPSVFLFPPKPKDTLMISRTPEVTCVVVDVSHEDPEVKFNWYVDGVEVHNAKTKPREEQYNSTYRVVSVLTVLHQDWLNGKEYKCKVSNKALPAPIEKTISKAKGQPREPQVCTLPPSRDELTKNQVSLWCLVKGFYPSDIAVEWESNGQPENNYKTTPPVLDSDGSFFLYSKLTVDKSRWQQGNVFSCSVMHEALHNRYTQKSLSLSP light: DIVMTQSPLSLPVTPGEPASISCRSSQSLVHSNRNTYLHWYQQKPGQAPRLLIYKVSNRFSGVPDRFSGSGSGTDFTLKISRVEAEDVGVYYCGQGTEVPYTFGQGTKLEIKRTVAAPSVFIFPPSDEQLKSGTASVVCLLNNFYPREAKVQWKVDNALQSGNSQESVTEQDSKDSTYSLSSTLTLSKADYEKHKVYACEVTHQGLSSPVTKSFNRGEC | 0.75
GLS3000 Q93P one-arm antibody (antibody, human IgG1, kappa, L234A L235A, N297A, name in Kabat numbering) heavy: QVQLVESGGGVVQPGRSLRLSCAASGFTFSNAWMHWVRQAPGKGLEWVAQIKAKSNNYATYYAESVKGRFTISRDDSKNSLYLQMNSLKTEDTAVYYCRYVHYGAYYGVDAWGQGTTVTVSSASTKGPSVFPLAPSSKSTSGGTAALGCLVKDYFPEPVTVSWNSGALTSGVHTFPAVLQSSGLYSLSSVVTVPSSSLGTQTYICNVNHKPSNTKVDKKVEPKSCDKTHTCPPCPAPEAAGGPSVFLFPPKPKDTLMISRTPEVTCVVVDVSHEDPEVKFNWYVDGVEVHNAKTKPREEQYASTYRVVSVLTVLHQDWLNGKEYKCKVSNKALPAPIEKTISKAKGQPREPQVYTLPPSRCELTKNQVSLSCAVKGFYPSDIAVEWESNGQPENNYKTTPPVLDSDGSFFLVSKLTVDKSRWQQGNVFSCSVMHEALHNHYTQKSLSLSPDYKDDDDK EPKSSDKTHTCPPCPAPELLGGPSVFLFPPKPKDTLMISRTPEVTCVVVDVSHEDPEVKFNWYVDGVEVHNAKTKPREEQYNSTYRVVSVLTVLHQDWLNGKEYKCKVSNKALPAPIEKTISKAKGQPREPQVCTLPPSRDELTKNQVSLWCLVKGFYPSDIAVEWESNGQPENNYKTTPPVLDSDGSFFLYSKLTVDKSRWQQGNVFSCSVMHEALHNRYTQKSLSLSP light: DIVMTQSPLSLPVTPGEPASISCRSSQSLVHSNRNTYLHWYQQKPGQAPRLLIYKVSNRFSGVPDRFSGSGSGTDFTLKISRVEAEDVGVYYCGQGTPVPYTFGQGTKLEIKRTVAAPSVFIFPPSDEQLKSGTASVVCLLNNFYPREAKVQWKVDNALQSGNSQESVTEQDSKDSTYSLSSTLTLSKADYEKHKVYACEVTHQGLSSPVTKSFNRGEC | 0.25
GLS3000 Q93R one-arm antibody (antibody, human IgG1, kappa, L234A L235A, N297A, name in Kabat numbering) heavy: QVQLVESGGGVVQPGRSLRLSCAASGFTFSNAWMHWVRQAPGKGLEWVAQIKAKSNNYATYYAESVKGRFTISRDDSKNSLYLQMNSLKTEDTAVYYCRYVHYGAYYGVDAWGQGTTVTVSSASTKGPSVFPLAPSSKSTSGGTAALGCLVKDYFPEPVTVSWNSGALTSGVHTFPAVLQSSGLYSLSSVVTVPSSSLGTQTYICNVNHKPSNTKVDKKVEPKSCDKTHTCPPCPAPEAAGGPSVFLFPPKPKDTLMISRTPEVTCVVVDVSHEDPEVKFNWYVDGVEVHNAKTKPREEQYASTYRVVSVLTVLHQDWLNGKEYKCKVSNKALPAPIEKTISKAKGQPREPQVYTLPPSRCELTKNQVSLSCAVKGFYPSDIAVEWESNGQPENNYKTTPPVLDSDGSFFLVSKLTVDKSRWQQGNVFSCSVMHEALHNHYTQKSLSLSPDYKDDDDK EPKSSDKTHTCPPCPAPELLGGPSVFLFPPKPKDTLMISRTPEVTCVVVDVSHEDPEVKFNWYVDGVEVHNAKTKPREEQYNSTYRVVSVLTVLHQDWLNGKEYKCKVSNKALPAPIEKTISKAKGQPREPQVCTLPPSRDELTKNQVSLWCLVKGFYPSDIAVEWESNGQPENNYKTTPPVLDSDGSFFLYSKLTVDKSRWQQGNVFSCSVMHEALHNRYTQKSLSLSP light: DIVMTQSPLSLPVTPGEPASISCRSSQSLVHSNRNTYLHWYQQKPGQAPRLLIYKVSNRFSGVPDRFSGSGSGTDFTLKISRVEAEDVGVYYCGQGTRVPYTFGQGTKLEIKRTVAAPSVFIFPPSDEQLKSGTASVVCLLNNFYPREAKVQWKVDNALQSGNSQESVTEQDSKDSTYSLSSTLTLSKADYEKHKVYACEVTHQGLSSPVTKSFNRGEC | 1.13
GLS3000 Q93S one-arm antibody (antibody, human IgG1, kappa, L234A L235A, N297A, name in Kabat numbering) heavy: QVQLVESGGGVVQPGRSLRLSCAASGFTFSNAWMHWVRQAPGKGLEWVAQIKAKSNNYATYYAESVKGRFTISRDDSKNSLYLQMNSLKTEDTAVYYCRYVHYGAYYGVDAWGQGTTVTVSSASTKGPSVFPLAPSSKSTSGGTAALGCLVKDYFPEPVTVSWNSGALTSGVHTFPAVLQSSGLYSLSSVVTVPSSSLGTQTYICNVNHKPSNTKVDKKVEPKSCDKTHTCPPCPAPEAAGGPSVFLFPPKPKDTLMISRTPEVTCVVVDVSHEDPEVKFNWYVDGVEVHNAKTKPREEQYASTYRVVSVLTVLHQDWLNGKEYKCKVSNKALPAPIEKTISKAKGQPREPQVYTLPPSRCELTKNQVSLSCAVKGFYPSDIAVEWESNGQPENNYKTTPPVLDSDGSFFLVSKLTVDKSRWQQGNVFSCSVMHEALHNHYTQKSLSLSPDYKDDDDK EPKSSDKTHTCPPCPAPELLGGPSVFLFPPKPKDTLMISRTPEVTCVVVDVSHEDPEVKFNWYVDGVEVHNAKTKPREEQYNSTYRVVSVLTVLHQDWLNGKEYKCKVSNKALPAPIEKTISKAKGQPREPQVCTLPPSRDELTKNQVSLWCLVKGFYPSDIAVEWESNGQPENNYKTTPPVLDSDGSFFLYSKLTVDKSRWQQGNVFSCSVMHEALHNRYTQKSLSLSP light: DIVMTQSPLSLPVTPGEPASISCRSSQSLVHSNRNTYLHWYQQKPGQAPRLLIYKVSNRFSGVPDRFSGSGSGTDFTLKISRVEAEDVGVYYCGQGTSVPYTFGQGTKLEIKRTVAAPSVFIFPPSDEQLKSGTASVVCLLNNFYPREAKVQWKVDNALQSGNSQESVTEQDSKDSTYSLSSTLTLSKADYEKHKVYACEVTHQGLSSPVTKSFNRGEC | 0.96
